Measurements published in patent US20050008615A1 (GlaxoSmithKline, published 2005).
“And” between values parts separate entries of the source, which are not always exact repeats. Identical values can stand only once.

T1: IL-18 receptor alpha chain (UniProt Q13478 19-329, limits assumed)
T1 construct: also called IL-18Rα; IL-18 Rα
T1 sequence (looked up): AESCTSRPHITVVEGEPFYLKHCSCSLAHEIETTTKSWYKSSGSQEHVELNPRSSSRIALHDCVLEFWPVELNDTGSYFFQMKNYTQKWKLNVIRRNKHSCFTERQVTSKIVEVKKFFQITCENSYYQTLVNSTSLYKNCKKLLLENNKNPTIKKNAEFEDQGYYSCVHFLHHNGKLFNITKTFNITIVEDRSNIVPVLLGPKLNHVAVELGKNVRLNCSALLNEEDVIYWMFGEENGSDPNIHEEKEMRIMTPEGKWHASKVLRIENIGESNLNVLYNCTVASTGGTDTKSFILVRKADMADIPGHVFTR


Key:
[1] = target: T2, IL-18 receptor (heterodimeric surface receptor composed of α- and β-chains) on KG-1 cells; assay: cell-based or functional assay
[2] = target: T1, IL-18 receptor alpha chain; assay: SPR (BIAcore)
[3] = target: T2, IL-18 receptor (heterodimeric surface …); assay: cell-based or functional assay; remark: listed apart in the source

| NF-κB bioassay, reduction in potency relative to the native IL-18 [1] | Kd [2] | NF-κB KG-1 EC50 [3] | NF-κB KG-1 EC50 (ng/ml), av. [3] | Binder |
| --- | --- | --- | --- | --- |
| ~10 fold | 0.196 µM | 0.004 µg/mL | 4 ng/mL | human IL-18 C38S, C68D, D157C (SEQ ID NO:8) (ligand, Non-pegylated substitution mutant; also called IL-18 C157 (C38S, C68D, D157C)) YFGKLESKLSVIRNLNDQVLFIDQGNRPLFEDMTDSDSRDNAPRTIFIISMYKDSQPRGMAVTISVKDEKISTLSCENKIISFKEMNPPDNIKDTKSDIIFFQRSVPGHDNKMQFESSSYEGYFLACEKERDLFKLILKKEDELGDRSIMFTVQNEC |
|  | 8.26 µM | 0.044 µg/mL | 44 ng/mL | human IL-18 C38S, C68S, L144C (SEQ ID NO:9) monopegylated at C144 with 30K PEG (ligand, methoxy polyethylene glycol maleimide, 30,000 Da, on Cys 144, also called IL-18 C144PEG30K) YFGKLESKLSVIRNLNDQVLFIDQGNRPLFEDMTDSDSRDNAPRTIFIISMYKDSQPRGMAVTISVKSEKISTLSCENKIISFKEMNPPDNIKDTKSDIIFFQRSVPGHDNKMQFESSSYEGYFLACEKERDLFKLILKKEDECGDRSIMFTVQNED |
|  | 4.26 µM | 0.038 µg/mL | 38 ng/mL | human IL-18 C38S, C68D, L144C (SEQ ID NO:7) monopegylated at C144 with 30K PEG (ligand, methoxy polyethylene glycol maleimide, 30,000 Da, on Cys 144, also called IL-18 C144PEG30K) YFGKLESKLSVIRNLNDQVLFIDQGNRPLFEDMTDSDSRDNAPRTIFIISMYKDSQPRGMAVTISVKDEKISTLSCENKIISFKEMNPPDNIKDTKSDIIFFQRSVPGHDNKMQFESSSYEGYFLACEKERDLFKLILKKEDECGDRSIMFTVQNED |
|  | 5.33 µM | 0.094 µg/mL and 0.043 µg/mL | 68.5 ng/mL | human IL-18 C38S, C68D, D157C (SEQ ID NO:8) monopegylated at C157 with 30K PEG (ligand, methoxy polyethylene glycol maleimide, 30,000 Da, on Cys 157, also called IL-18 C157PEG30K; 157C-30K) YFGKLESKLSVIRNLNDQVLFIDQGNRPLFEDMTDSDSRDNAPRTIFIISMYKDSQPRGMAVTISVKDEKISTLSCENKIISFKEMNPPDNIKDTKSDIIFFQRSVPGHDNKMQFESSSYEGYFLACEKERDLFKLILKKEDELGDRSIMFTVQNEC |
|  | 5.19 µM | 0.071 µg/mL and 0.092 µg/mL | 81.5 ng/mL | human IL-18 C38S, C68S, L144C (SEQ ID NO:9) monopegylated at C144 with 20K PEG (ligand, methoxy polyethylene glycol maleimide, 20,000 Da, on Cys 144, also called IL-18 C144PEG20K) YFGKLESKLSVIRNLNDQVLFIDQGNRPLFEDMTDSDSRDNAPRTIFIISMYKDSQPRGMAVTISVKSEKISTLSCENKIISFKEMNPPDNIKDTKSDIIFFQRSVPGHDNKMQFESSSYEGYFLACEKERDLFKLILKKEDECGDRSIMFTVQNED |
|  | 0.534 µM |  | 2.6 ng/mL | human IL-18 C38S, C68S, L144C (SEQ ID NO:9) (ligand, Non-pegylated substitution mutant; also called IL-18 C144 (C38S, C68S, L144C)) YFGKLESKLSVIRNLNDQVLFIDQGNRPLFEDMTDSDSRDNAPRTIFIISMYKDSQPRGMAVTISVKSEKISTLSCENKIISFKEMNPPDNIKDTKSDIIFFQRSVPGHDNKMQFESSSYEGYFLACEKERDLFKLILKKEDECGDRSIMFTVQNED |
| ~10 fold | 0.222 µM | 0.0035 µg/mL and 0.0016 µg/mL | 2.6 ng/mL | human IL-18 C38S, C68D, L144C (SEQ ID NO:7) (ligand, Non-pegylated substitution mutant; also called IL-18 C144 (C38S, C68D, L144C)) YFGKLESKLSVIRNLNDQVLFIDQGNRPLFEDMTDSDSRDNAPRTIFIISMYKDSQPRGMAVTISVKDEKISTLSCENKIISFKEMNPPDNIKDTKSDIIFFQRSVPGHDNKMQFESSSYEGYFLACEKERDLFKLILKKEDECGDRSIMFTVQNED |
|  | 5.5 µM | 0.049 µg/mL and 0.059 µg/mL | 54 ng/mL | human IL-18 C38S, C68S, D157C (SEQ ID NO:10) monopegylated at C157 with 20K PEG (ligand, methoxy polyethylene glycol maleimide, 20,000 Da, on Cys 157, also called IL-18 C157PEG20K; 157C-20K) YFGKLESKLSVIRNLNDQVLFIDQGNRPLFEDMTDSDSRDNAPRTIFIISMYKDSQPRGMAVTISVKSEKISTLSCENKIISFKEMNPPDNIKDTKSDIIFFQRSVPGHDNKMQFESSSYEGYFLACEKERDLFKLILKKEDELGDRSIMFTVQNEC |
|  | 2.69 µM | 0.058 µg/mL and 0.066 µg/mL and 0.042 µg/mL | 55.3 ng/mL | human IL-18 C38S, C68D, L144C (SEQ ID NO:7) monopegylated at C144 with 20K PEG (ligand, methoxy polyethylene glycol maleimide, 20,000 Da, on Cys 144, also called IL-18 C144PEG20K) YFGKLESKLSVIRNLNDQVLFIDQGNRPLFEDMTDSDSRDNAPRTIFIISMYKDSQPRGMAVTISVKDEKISTLSCENKIISFKEMNPPDNIKDTKSDIIFFQRSVPGHDNKMQFESSSYEGYFLACEKERDLFKLILKKEDECGDRSIMFTVQNED |
|  | 0.41 µM |  | 2 ng/mL | human IL-18 C38S, C68S, D157C (SEQ ID NO:10) (ligand, Non-pegylated substitution mutant; also called IL-18 C157 (C38S, C68S, D157C)) YFGKLESKLSVIRNLNDQVLFIDQGNRPLFEDMTDSDSRDNAPRTIFIISMYKDSQPRGMAVTISVKSEKISTLSCENKIISFKEMNPPDNIKDTKSDIIFFQRSVPGHDNKMQFESSSYEGYFLACEKERDLFKLILKKEDELGDRSIMFTVQNEC |
|  | 5.35 µM | 0.271 µg/mL and 0.33 µg/mL | 300 ng/mL | human IL-18 C38S, C68D, L144C (SEQ ID NO:7) monopegylated at C144 with 40K PEG (ligand, methoxy polyethylene glycol maleimide, 40,000 Da, on Cys 144, also called IL-18 C144PEG40K) YFGKLESKLSVIRNLNDQVLFIDQGNRPLFEDMTDSDSRDNAPRTIFIISMYKDSQPRGMAVTISVKDEKISTLSCENKIISFKEMNPPDNIKDTKSDIIFFQRSVPGHDNKMQFESSSYEGYFLACEKERDLFKLILKKEDECGDRSIMFTVQNED |
|  | 22.9 µM |  | 278 ng/mL | human IL-18 C38S, C68D, D157C (SEQ ID NO:8) monopegylated at C157 with 40K PEG (ligand, methoxy polyethylene glycol maleimide, 40,000 Da, on Cys 157, also called IL-18 C157PEG40K; 157C-40K) YFGKLESKLSVIRNLNDQVLFIDQGNRPLFEDMTDSDSRDNAPRTIFIISMYKDSQPRGMAVTISVKDEKISTLSCENKIISFKEMNPPDNIKDTKSDIIFFQRSVPGHDNKMQFESSSYEGYFLACEKERDLFKLILKKEDELGDRSIMFTVQNEC |
|  | 5.16 µM |  | 37.3 ng/mL | human IL-18 C38S, C68D, D157C (SEQ ID NO:8) monopegylated at C157 with 20K PEG (ligand, methoxy polyethylene glycol maleimide, 20,000 Da, on Cys 157, also called IL-18 C157PEG20K; 157C-20K) YFGKLESKLSVIRNLNDQVLFIDQGNRPLFEDMTDSDSRDNAPRTIFIISMYKDSQPRGMAVTISVKDEKISTLSCENKIISFKEMNPPDNIKDTKSDIIFFQRSVPGHDNKMQFESSSYEGYFLACEKERDLFKLILKKEDELGDRSIMFTVQNEC |
|  | 6.34 µM | 0.047 µg/mL | 47 ng/mL | human IL-18 C38S, C68S, D157C (SEQ ID NO:10) monopegylated at C157 with 30K PEG (ligand, methoxy polyethylene glycol maleimide, 30,000 Da, on Cys 157, also called IL-18 C157PEG30K; 157C-30K) YFGKLESKLSVIRNLNDQVLFIDQGNRPLFEDMTDSDSRDNAPRTIFIISMYKDSQPRGMAVTISVKSEKISTLSCENKIISFKEMNPPDNIKDTKSDIIFFQRSVPGHDNKMQFESSSYEGYFLACEKERDLFKLILKKEDELGDRSIMFTVQNEC |
